Measurements reported in PMC11602501 (Frontiers in Immunology, 2024).

Legend:
[1] = target: T1, HIV-1 fusion peptide FP15 (Env residues 512-526, most common sequence) (HIV-1 Env fusion peptide 512-526, most …); assay: peptide or protein array; conditions: both partners purified
T1 construct: source: peptide microarray (PEPperPRINT)
T1 chain: AVGIGAVFLGFLGAA

[2] = target: T2, BG505_RnS soluble HIV-1 Env trimer (WT FP sequence) (HIV-1 BG505, UniProt Q2N0S6, stabilised); assay: BLI; ForteBio Octet HTX; IgG loaded on anti-human Fc (AHC) tips at 20 ug/ml for 3 min; Env trimers at 50 ug/ml for 5 min, dissociation in PBS 5 min; corrected response values, triplicates; conditions: both partners purified
T2 construct: also called BG505 trimer; not shown: single-chain Fc, N-terminal, cleaved; copies: 3 + 3

FP15 F519E (HIV-1) = target: T3, FP15 F519E (HIV-1); assay: peptide or protein array
T3 sequence (peptide): AVGIGAVELGFLGAA

FP15 A517D (HIV-1) = target: T4, FP15 A517D (HIV-1); assay: peptide or protein array
T4 sequence (peptide): AVGIGDVFLGFLGAA

FP15 F519D (HIV-1) = target: T5, FP15 F519D (HIV-1); assay: peptide or protein array
T5 sequence (peptide): AVGIGAVDLGFLGAA

FP15 V518D (HIV-1) = target: T6, FP15 V518D (HIV-1); assay: peptide or protein array
T6 sequence (peptide): AVGIGADFLGFLGAA

FP15 V518E (HIV-1) = target: T7, FP15 V518E (HIV-1); assay: peptide or protein array
T7 sequence (peptide): AVGIGAEFLGFLGAA

FP15 A517E = target: T8, FP15 A517E (HIV-1 Env fusion peptide 512-526, most …, A517E); assay: peptide or protein array; conditions: both partners purified
T8 construct: also called FP15 with Glu at residue 517; source: peptide microarray (PEPperPRINT)
T8 chain: AVGIGEVFLGFLGAA

[3] = target: T2, BG505_RnS soluble HIV-1 Env trimer (WT …); assay: BLI; conditions: both partners purified

B1: 0PV-c.01 IgG (antibody, V domains shown)
VH: QVQLVESGPGVVKPSETLSLTCVVSGGTPGRGFLYWSWVRQPPGKGLEWIGGTATNTDITDYNPSLKSRAAISKDTSRNQFLLNLKPLTAGDTAVYYCTSRAKDYRGPSYSRIDVWGPGVLVTVSS
VL: DIVMTQTPLSLPVTPGEPASISCRSSQSLLDSDGNTCLDWFLQKPGQSPQLLIYDVSNRVSGVPDRFSGSGSDTDFTLKISRVEAEDVGVYYCMQFVEFPLTFGGGTKVEIR
notes: source: Expi293, transfected, purified (protein A)
[1]
  binding result: binds

B2: ACS202 IgG (antibody, V domains shown)
VH: QVQLVESGGGVVQPGGSLRLSCAASGFAFKDFGMHWVRQAPGKGLEWVAVIGGGHGQHQSYSESVKGRFAITRDNEKNKLYLHMDRLRTEDTAVYYCAKDRLGRPWNIGGRLVYYYYGMDVWGQGTTVTVSS
VL: AIRMTQSPSSLSASVGDRVTITCQASQDIKKSLNWYRQKPGKAPELLIHDASILQTGVPSAFTASGSGTHFSFVINKLQPEDVGTYFCQEYENLQFTFGPGTKVEIK
notes: as for B1
[2]
  binding result: binds
FP15 F519E (HIV-1)
  fold increase of binding intensity over WT: 10 fold
FP15 A517D (HIV-1)
  fold increase of binding intensity over WT: 10 fold
FP15 F519D (HIV-1)
  fold increase of binding intensity over WT: 10 fold
FP15 V518D (HIV-1)
  fold increase of binding intensity over WT: 10 fold
FP15 V518E (HIV-1)
  fold increase of binding intensity over WT: 10 fold
FP15 A517E
  fold increase of binding intensity over WT: 10 fold
[1]
  binding result: binds

B3: N123-VRC34.01 IgG (antibody, V domains shown)
VH: QEVLVQSGAEVKKPGASVKVSCRAFGYTFTGNALHWVRQAPGQGLEWLGWINPHSGDTTTSQKFQGRVYMTRDKSINTAFLDVTRLTSDDTGIYYCARDKYYGNEAVGMDVWGQGTSVTVSS
VL: IQLTQSPSFLSASVGDKVTITCRASQGVRNELAWYQQKPGKAPNLLIYYASTLQSGVPSRFSATGSGTHFTLTVSSLQPEDFATYFCQHMSSYPLTFGGGTKVEIK
notes: as for B1
[3]
  binding result: binds
